Results taken from patent publication US20190136246A1 (CSIR, published 2019).
Positions count from the first letter of the chain named.

B1: BTV-8 VP3 (SEQ ID NO:2) (other)
chain: MAAQNEQRPERIKTTPYLEGDVLSSDSGPLLSVFALQEIMQKVRQVQADYMTATREVDFTVPDVQKILDDIKALAAEQVYKIVKVPSISFRHIVMQSRDRVLRVDTYYEEMSQVGDVITEDEPEKFYSTIIKKVRFIRGKGSFILHDIPTRDHRGMEVAEPEVLGVEFKNVLPVLTAEHRAMIQNALDGSIIENGNVATRDVDVFIGACSEPIYRIYNRLQGYIEAVQLQELRNSIGWLERLGQRKRITYSQEVLTDFRRQDTIWVLALQLPVNPQVVWDVPRSSIANLIMNIATCLPTGEYIAPNPRISSITLTQRITTTGPFAILTGSTPTAQQLNDVRKIYLALMFPGQIILDLKIDPGERMDPAVRMVAGVVGHLLFTAGGRFTNLTQNMARQLDIALNDYLLYMYNTRVQVNYGPTGEPLDFQIGRNQYDCNVFRADFATGTGYNGWATIDVEYRDPAPYVHAQRYIRYCGIDSRELINPTTYGIGMTYHCYNEMLRMLVAAGKDSEAAYFRSMLPFHMVRFARINQIINEDLHSVFSLPDDVFNALLPDLIAGAHQNADPVVLDVSWISLWFAFNRSFEPTHRNEMLEIAPLIESVYASELSVMKVDMRHLSLMQRRFPDVLIQARPSHFWKAVLNDSPEAVKAVMNLSHSHNFINIRDMMRWVLLPSLQPSLKLALEEEAWAAANDFEDLMLTDQVYMHRDMLPEPRLDDIERFRQEGFYYTNMLEAPPEIDRVVQYTYEIARLQANMGQFRAALRRIMDDDDWVRFGGVLRTVRVKFFDARPPDDILQGLPFSYDTNEKGGLSYATIKYATETTIFYLIYNVEFSNTPDSLVLINPTYTMTKVFINKRIVERVRVGQILAVLNRRFVAYKGKMRIMDITQSLKMGTKLAAPTV
B2: BTV-8 VP7 (SEQ ID NO:5) (other)
chain: MDTIAARALTVMRACATLQEARIVLEANVMEILGIAINRYNGLTLRGVTMRPTSLAQRNEMFFMCLDMMLSAAGINVGPISPDYTQHMATIGVLATPEIPFTTEAANEIARVTGETSTWGPARQPYGFFLETEETFQPGRWFMRAAQAVTAVVCGPDMIQVSLNAGARGDVQQIFQGRNDPMMIYLVWRRIENFAMAQGNSQQTQAGVTVSVGGVDMRAGRIIAWDGQAALHVHNPTQQNAMVQIQVVFYISMDKTLNQYPALTAEIFNVYSFRDHTWHGLRTAILNRTTLPNMLPPIFPPNDRDSILTLLLLSTLADVYTVLRPEFAIHGVNPMPGPLTRAIARAAYV

Legend:
BTV-8 VP7 (SEQ ID NO:6) = target: T1, BTV-8 VP7 (SEQ ID NO:6) (Bluetongue virus serotype 8, UniProt P69361 1-349); experiment: CLP assembly on co-expression; sucrose gradient, TEM (FIG. 13)
T1 sequence: B2 chain

BTV-8 VP3 (SEQ ID NO:1) = target: T2, BTV-8 VP3 (SEQ ID NO:1) (Bluetongue virus serotype 8, UniProt P12435 1-901); experiment: particle assembly on co-expression in N. benthamiana; iodixanol gradient, TEM
T2 sequence: B1 chain with V548M

| Binder | binding result (BTV-8 VP7 (SEQ ID NO:6)) | binding result (BTV-8 VP3 (SEQ ID NO:1)) |
| --- | --- | --- |
| B1 | binds | – |
| B2 | – | binds |
